According to patent US20260167699A1 (Chugai, published 2026):

Legend:
Assay in all cases: SPR (Biacore), binding relative to GpH7-A5/GpH7-B3/GpL16-k0 x100;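 also: surface plasmon resonance at 25 °C, antibody captured on a sensor chip and soluble FcγR flowed over it in HBS-EP+ running buffer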
[1] = biological target: T1, FcγRIa (human, UniProt P12314 16-292)
T1 construct: extracellular domain; also called 1a

[2] = biological target: T2, FcγRIIa(R) (human, UniProt P12318 34-217)
T2 construct: extracellular domain; also called FcγRIIa R type; 2aR
T2 sequence: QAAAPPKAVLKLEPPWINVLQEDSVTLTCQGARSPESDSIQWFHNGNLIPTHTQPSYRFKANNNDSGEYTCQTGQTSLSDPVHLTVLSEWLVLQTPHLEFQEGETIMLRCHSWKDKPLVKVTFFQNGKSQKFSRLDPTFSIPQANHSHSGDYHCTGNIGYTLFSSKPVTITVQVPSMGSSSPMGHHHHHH

[3] = biological target: T3, FcγRIIa(H) (human, UniProt P12318 34-217)
T3 construct: extracellular domain; also called FcγRIIa H type; 2aH
T3 sequence: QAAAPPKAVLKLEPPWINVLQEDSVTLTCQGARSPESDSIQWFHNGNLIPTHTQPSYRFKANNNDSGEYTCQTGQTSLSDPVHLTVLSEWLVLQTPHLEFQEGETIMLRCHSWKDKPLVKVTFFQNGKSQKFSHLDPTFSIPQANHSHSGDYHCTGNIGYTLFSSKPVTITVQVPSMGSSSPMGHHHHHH

[4] = biological target: T4, FcγRIIb (human, UniProt P31994 43-217)
T4 construct: extracellular domain; also called 2b
T4 sequence: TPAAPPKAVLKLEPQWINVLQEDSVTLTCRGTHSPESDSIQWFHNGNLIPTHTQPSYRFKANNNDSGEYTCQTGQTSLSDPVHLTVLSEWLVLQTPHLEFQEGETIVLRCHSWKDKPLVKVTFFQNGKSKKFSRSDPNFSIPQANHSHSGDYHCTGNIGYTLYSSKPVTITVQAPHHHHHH

T1 sequence (P12314 other isoform, or with tags, fused parts or gaps): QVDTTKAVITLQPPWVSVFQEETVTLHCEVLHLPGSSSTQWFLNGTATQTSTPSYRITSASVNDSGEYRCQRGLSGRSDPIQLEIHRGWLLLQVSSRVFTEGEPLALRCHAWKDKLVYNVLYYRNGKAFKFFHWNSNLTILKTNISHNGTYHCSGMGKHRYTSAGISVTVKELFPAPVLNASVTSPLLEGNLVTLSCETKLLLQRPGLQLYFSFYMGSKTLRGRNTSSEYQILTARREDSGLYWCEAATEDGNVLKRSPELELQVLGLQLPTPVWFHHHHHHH

Binder	He/Con 1a [1] [%]	He/Con 2aR [2] [%]	He/Con 2aH [3] [%]	He/Con 2b [4] [%]
GpH7-A5/GpH7-B3 variant H268_05P/GpL16-k0 (antibody, human IgG1, kappa, heterodimerized IgG1, one H chain mutated; also called He Ab) heavy 1: not shown heavy 2: not shown light: DIVMTQSPLSLPVTPGEPASISCQASESLVHSNRNTYLHWYLQKPGQSPQLLIYKVSNRFSGVPDRFSGSGSGTDFTLKISRVEAEDVGVYYCSQNTHVPPTFGQGTKVEIERTVAAPSVFIFPPSDEQLKSGTASVVCLLNNFYPREAKVQWKVDNALQSGNSQESVTEQDSKDSTYSLSSTLTLSKADYEKHKVYACEVTHQGLSSPVTKSFNRGEC	106	114	82.7	122
GpH7-A5/GpH7-B3 variant E269_14T/GpL16-k0 (antibody, human IgG1, kappa, heterodimerized IgG1, one H chain mutated; also called He Ab) heavy 1: not shown heavy 2: not shown light: DIVMTQSPLSLPVTPGEPASISCQASESLVHSNRNTYLHWYLQKPGQSPQLLIYKVSNRFSGVPDRFSGSGSGTDFTLKISRVEAEDVGVYYCSQNTHVPPTFGQGTKVEIERTVAAPSVFIFPPSDEQLKSGTASVVCLLNNFYPREAKVQWKVDNALQSGNSQESVTEQDSKDSTYSLSSTLTLSKADYEKHKVYACEVTHQGLSSPVTKSFNRGEC	102	71	70.3	53.2
GpH7-A5/GpH7-B3 variant E269_13S/GpL16-k0 (antibody, human IgG1, kappa, heterodimerized IgG1, one H chain mutated; also called He Ab) heavy 1: not shown heavy 2: not shown light: DIVMTQSPLSLPVTPGEPASISCQASESLVHSNRNTYLHWYLQKPGQSPQLLIYKVSNRFSGVPDRFSGSGSGTDFTLKISRVEAEDVGVYYCSQNTHVPPTFGQGTKVEIERTVAAPSVFIFPPSDEQLKSGTASVVCLLNNFYPREAKVQWKVDNALQSGNSQESVTEQDSKDSTYSLSSTLTLSKADYEKHKVYACEVTHQGLSSPVTKSFNRGEC	99.8	65.8	70.7	50.2
GpH7-A5/GpH7-B3 variant H268_01G/GpL16-k0 (antibody, human IgG1, kappa, heterodimerized IgG1, one H chain mutated; also called He Ab) heavy 1: not shown heavy 2: not shown light: DIVMTQSPLSLPVTPGEPASISCQASESLVHSNRNTYLHWYLQKPGQSPQLLIYKVSNRFSGVPDRFSGSGSGTDFTLKISRVEAEDVGVYYCSQNTHVPPTFGQGTKVEIERTVAAPSVFIFPPSDEQLKSGTASVVCLLNNFYPREAKVQWKVDNALQSGNSQESVTEQDSKDSTYSLSSTLTLSKADYEKHKVYACEVTHQGLSSPVTKSFNRGEC	104	134	100	151
GpH7-A5/GpH7-B3 variant G236_09D/GpL16-k0 (antibody, human IgG1, kappa, heterodimerized IgG1, one H chain mutated; also called He Ab) heavy 1: not shown heavy 2: not shown light: DIVMTQSPLSLPVTPGEPASISCQASESLVHSNRNTYLHWYLQKPGQSPQLLIYKVSNRFSGVPDRFSGSGSGTDFTLKISRVEAEDVGVYYCSQNTHVPPTFGQGTKVEIERTVAAPSVFIFPPSDEQLKSGTASVVCLLNNFYPREAKVQWKVDNALQSGNSQESVTEQDSKDSTYSLSSTLTLSKADYEKHKVYACEVTHQGLSSPVTKSFNRGEC	95.5	105	93.5	174
GpH7-A5/GpH7-B3 variant G236_10E/GpL16-k0 (antibody, human IgG1, kappa, heterodimerized IgG1, one H chain mutated; also called He Ab) heavy 1: not shown heavy 2: not shown light: DIVMTQSPLSLPVTPGEPASISCQASESLVHSNRNTYLHWYLQKPGQSPQLLIYKVSNRFSGVPDRFSGSGSGTDFTLKISRVEAEDVGVYYCSQNTHVPPTFGQGTKVEIERTVAAPSVFIFPPSDEQLKSGTASVVCLLNNFYPREAKVQWKVDNALQSGNSQESVTEQDSKDSTYSLSSTLTLSKADYEKHKVYACEVTHQGLSSPVTKSFNRGEC	92.6	124	116	115
GpH7-A5/GpH7-B3 variant E269_02A/GpL16-k0 (antibody, human IgG1, kappa, heterodimerized IgG1, one H chain mutated; also called He Ab) heavy 1: not shown heavy 2: not shown light: DIVMTQSPLSLPVTPGEPASISCQASESLVHSNRNTYLHWYLQKPGQSPQLLIYKVSNRFSGVPDRFSGSGSGTDFTLKISRVEAEDVGVYYCSQNTHVPPTFGQGTKVEIERTVAAPSVFIFPPSDEQLKSGTASVVCLLNNFYPREAKVQWKVDNALQSGNSQESVTEQDSKDSTYSLSSTLTLSKADYEKHKVYACEVTHQGLSSPVTKSFNRGEC	101	70.2	78.7	52.4
GpH7-A5/GpH7-B3 variant H268_02A/GpL16-k0 (antibody, human IgG1, kappa, heterodimerized IgG1, one H chain mutated; also called He Ab) heavy 1: not shown heavy 2: not shown light: DIVMTQSPLSLPVTPGEPASISCQASESLVHSNRNTYLHWYLQKPGQSPQLLIYKVSNRFSGVPDRFSGSGSGTDFTLKISRVEAEDVGVYYCSQNTHVPPTFGQGTKVEIERTVAAPSVFIFPPSDEQLKSGTASVVCLLNNFYPREAKVQWKVDNALQSGNSQESVTEQDSKDSTYSLSSTLTLSKADYEKHKVYACEVTHQGLSSPVTKSFNRGEC	105	143	115	175
GpH7-A5/GpH7-B3 variant D270_08L/GpL16-k0 (antibody, human IgG1, kappa, heterodimerized IgG1, one H chain mutated; also called He Ab) heavy 1: not shown heavy 2: not shown light: DIVMTQSPLSLPVTPGEPASISCQASESLVHSNRNTYLHWYLQKPGQSPQLLIYKVSNRFSGVPDRFSGSGSGTDFTLKISRVEAEDVGVYYCSQNTHVPPTFGQGTKVEIERTVAAPSVFIFPPSDEQLKSGTASVVCLLNNFYPREAKVQWKVDNALQSGNSQESVTEQDSKDSTYSLSSTLTLSKADYEKHKVYACEVTHQGLSSPVTKSFNRGEC	93.2	62.8	81.8	50.8
GpH7-A5/GpH7-B3 variant G236_20W/GpL16-k0 (antibody, human IgG1, kappa, heterodimerized IgG1, one H chain mutated; also called He Ab) heavy 1: not shown heavy 2: not shown light: DIVMTQSPLSLPVTPGEPASISCQASESLVHSNRNTYLHWYLQKPGQSPQLLIYKVSNRFSGVPDRFSGSGSGTDFTLKISRVEAEDVGVYYCSQNTHVPPTFGQGTKVEIERTVAAPSVFIFPPSDEQLKSGTASVVCLLNNFYPREAKVQWKVDNALQSGNSQESVTEQDSKDSTYSLSSTLTLSKADYEKHKVYACEVTHQGLSSPVTKSFNRGEC	104	77.3	153	60.7
GpH7-A5/GpH7-B3 variant E269_09D/GpL16-k0 (antibody, human IgG1, kappa, heterodimerized IgG1, one H chain mutated; also called He Ab) heavy 1: not shown heavy 2: not shown light: DIVMTQSPLSLPVTPGEPASISCQASESLVHSNRNTYLHWYLQKPGQSPQLLIYKVSNRFSGVPDRFSGSGSGTDFTLKISRVEAEDVGVYYCSQNTHVPPTFGQGTKVEIERTVAAPSVFIFPPSDEQLKSGTASVVCLLNNFYPREAKVQWKVDNALQSGNSQESVTEQDSKDSTYSLSSTLTLSKADYEKHKVYACEVTHQGLSSPVTKSFNRGEC	103	113	105	110
GpH7-A5/GpH7-B3 variant D270_10E/GpL16-k0 (antibody, human IgG1, kappa, heterodimerized IgG1, one H chain mutated; also called He Ab) heavy 1: not shown heavy 2: not shown light: DIVMTQSPLSLPVTPGEPASISCQASESLVHSNRNTYLHWYLQKPGQSPQLLIYKVSNRFSGVPDRFSGSGSGTDFTLKISRVEAEDVGVYYCSQNTHVPPTFGQGTKVEIERTVAAPSVFIFPPSDEQLKSGTASVVCLLNNFYPREAKVQWKVDNALQSGNSQESVTEQDSKDSTYSLSSTLTLSKADYEKHKVYACEVTHQGLSSPVTKSFNRGEC	104	85.7	111	72.5
GpH7-A5/GpH7-B3 variant E269_01G/GpL16-k0 (antibody, human IgG1, kappa, heterodimerized IgG1, one H chain mutated; also called He Ab) heavy 1: not shown heavy 2: not shown light: DIVMTQSPLSLPVTPGEPASISCQASESLVHSNRNTYLHWYLQKPGQSPQLLIYKVSNRFSGVPDRFSGSGSGTDFTLKISRVEAEDVGVYYCSQNTHVPPTFGQGTKVEIERTVAAPSVFIFPPSDEQLKSGTASVVCLLNNFYPREAKVQWKVDNALQSGNSQESVTEQDSKDSTYSLSSTLTLSKADYEKHKVYACEVTHQGLSSPVTKSFNRGEC	101	70.3	72.3	54.1
GpH7-A5/GpH7-B3 variant D270_14T/GpL16-k0 (antibody, human IgG1, kappa, heterodimerized IgG1, one H chain mutated; also called He Ab) heavy 1: not shown heavy 2: not shown light: DIVMTQSPLSLPVTPGEPASISCQASESLVHSNRNTYLHWYLQKPGQSPQLLIYKVSNRFSGVPDRFSGSGSGTDFTLKISRVEAEDVGVYYCSQNTHVPPTFGQGTKVEIERTVAAPSVFIFPPSDEQLKSGTASVVCLLNNFYPREAKVQWKVDNALQSGNSQESVTEQDSKDSTYSLSSTLTLSKADYEKHKVYACEVTHQGLSSPVTKSFNRGEC	89.5	72.2	81.3	54.8
GpH7-A5/GpH7-B3 variant G236_02A/GpL16-k0 (antibody, human IgG1, kappa, heterodimerized IgG1, one H chain mutated; also called He Ab) heavy 1: not shown heavy 2: not shown light: DIVMTQSPLSLPVTPGEPASISCQASESLVHSNRNTYLHWYLQKPGQSPQLLIYKVSNRFSGVPDRFSGSGSGTDFTLKISRVEAEDVGVYYCSQNTHVPPTFGQGTKVEIERTVAAPSVFIFPPSDEQLKSGTASVVCLLNNFYPREAKVQWKVDNALQSGNSQESVTEQDSKDSTYSLSSTLTLSKADYEKHKVYACEVTHQGLSSPVTKSFNRGEC	99.1	145	145	101
